Reference: patent US10801046B2, “Methods and materials for biosynthesizing multifunctional, multivariate molecules via carbon chain modification” (INVISTA NORTH AMERICA S.A.R.L., priority 2016, dated 2020)

Key:
[1] = Carboxylate reductase activity, 7-hydroxyheptanoate to 7-hydroxyheptanal, NADPH consumption at 340 nm; assay type: biochemical; conditions: enhanced by gene product of sfp, 20 min, against empty vector control, FIG. 44
Procedure: A sequence encoding a His-tag was added to the genes from Mycobacterium marinum, Mycobacterium smegmatis, Segniliparus rugosus, Mycobacterium smegmatis, Mycobacterium massiliense, and Segniliparus rotundus that encode the carboxylate reductases of SEQ ID NOs: 25 (GenBank Accession No. ACC40567.1), 27 (GenBank Accession No. ABK75684.1), 29 (GenBank Accession No. ABK71854.1), 31 (GenBank Accession No. EFV11917.1), 37 (GenBank Accession No. EIV11143.1), and 38 (GenBank Accession No. ADG98140.1) such that N-terminal HIS tagged carboxylate reductases could be produced. Each of the modified genes was cloned into a pET Duet expression vector alongside a sfp gene encoding a His-tagged phosphopantetheine transferase from Bacillus subtilis, both under control of the T7 promoter.
Each expression vector was transformed into a BL21[DE3] E. coli host and the resulting recombinant E. coli strains were cultivated at 37° C. in a 250 mL shake flask culture containing 50 mL LB media and antibiotic selection pressure, with shaking at 230 rpm. Each culture was induced overnight at 37° C. using an auto-induction media.
The pellet from each induced shake flask culture was harvested via centrifugation. Each pellet was resuspended and lysed via sonication. The cell debris was separated from the supernatant via centrifugation. The carboxylate reductases and phosphopantetheine transferase were purified from the supernatant using Ni-affinity chromatography, diluted 10-fold into 50 mM HEPES buffer (pH=7.5) and concentrated via ultrafiltration.
Enzyme activity (i.e., 7-hydroxyheptanoate to 7-hydroxyheptanal) assays were performed in triplicate in a buffer composed of a final concentration of 50 mM HEPES buffer (pH=7.5), 2 mM […], 10 mM MgCl2, 1 mM ATP, and 1 mM NADPH. Each enzyme activity assay reaction was initiated by adding purified carboxylate reductase and phosphopantetheine transferase or the empty vector control to the assay buffer containing the 7-hydroxyheptanoate and then incubated at room temperature for 20 min. The consumption of NADPH was monitored by absorbance at 340 nm.

[2] = Carboxylate reductase activity, heptanedioate to 7-oxoheptanoate, NADPH consumption at 340 nm; assay type: biochemical; conditions: enhanced by gene product of sfp, 2 mM substrate, 20 min, against empty vector control, FIG. 43
Procedure: A sequence encoding a HIS-tag was added to the genes from Segniliparus rugosus and Segniliparus rotundus that encode the carboxylate reductases of SEQ ID NOs: 31 (GenBank Accession No. EFV11917.1) and 38 (GenBank Accession No. ADG98140.1), respectively, such that N-terminal HIS tagged carboxylate reductases could be produced. Each of the modified genes was cloned into a pET Duet expression vector along with a sfp gene encoding a HIS-tagged phosphopantetheine transferase from Bacillus subtilis, both under the T7 promoter. Each expression vector was transformed into a BL21[DE3] E. coli host and the resulting recombinant E. coli strains were cultivated at 37° C. in a 250 mL shake flask culture containing 50 mL LB media and antibiotic selection pressure, with shaking at 230 rpm. Each culture was induced overnight at 37° C. using an auto-induction media.
The pellet from each induced shake flask culture was harvested via centrifugation. Each pellet was resuspended and lysed via sonication, and the cell debris was separated from the supernatant via centrifugation. […]
Enzyme activity assays (i.e., from heptanedioate to 7-oxoheptanoate) were performed in triplicate in a buffer composed of a final concentration of 50 mM HEPES buffer (pH=7.5), 2 mM heptanedioate, 10 mM MgCl2, 1 mM ATP, and 1 mM NADPH. […] The consumption of NADPH was monitored by absorbance at 340 nm.

B1: SEQ ID NO: 31: Segniliparus rugosus carboxylate reductase (protein)
chain: MGDGEERAKRFFQRIGELSATDPQFAAAAPDPAVVEAVSDPSLSFTRYLDTLMRGYAERPALAHRVGAGYETISYGELWARVGAIAAAWQADGLAPGDFVATVGFTSPDYVAVDLAAARSGLVSVPLQAGASLAQLVGILEETEPKVLAASASSLEGAVACALAAPSVQRLVVFDLRGPDASESAADERRGALADAEEQLARAGRAVVVETLADLAARGEALPEAPLFEPAEGEDPLALLIYTSGSTGAPKGAMYSQRLVSQLWGRTPVVPGMPNISLHYMPLSHSYGRAVLAGALSAGGTAHFTANSDLSTLFEDIALARPTFLALVPRVCEMLFQESQRGQDVAELRERVLGGRLLVAVCGSAPLSPEMRAFMEEVLGFPLLDGYGSTEALGVMRNGIIQRPPVIDYKLVDVPELGYRTTDKPYPRGELCIRSTSLISGYYKRPEITAEVFDAQGYYKTGDVMAEIAPDHLVYVDRSKNVLKLSQGEFVAVAKLEAAYGTSPYVKQIFVYGNSERSFLLAVVVPNAEVLGARDQEEAKPLIAASLQKIAKEAGLQSYEVPRDFLIETEPFTTQNGLLSEVGKLLRPKLKARYGEALEARYDEIAHGQADELRALRDGAGQRPVVETVVRAAVAISGSEGAEVGPEANFADLGGDSLSALSLANLLHDVFEVEVPVRIIIGPTASLAGIAKHIEAERAGASAPTAASVHGAGATRIRASELTLEKFLPEDLLAAAKGLPAADQVRTVLLTGANGWLGRFLALEQLERLARSGQDGGKLICLVRGKDAAAARRRIEETLGTDPALAARFAELAEGRLEVVPGDVGEPKFGLDDAAWDRLAEEVDVIVHPAALVNHVLPYHQLFGPNVVGTAEIIRLAITAKRKPVTYLSTVAVAAGVEPSSFEEDGDIRAVVPERPLGDGYANGYGNSKWAGEVLLREAHELVGLPVAVFRSDMILAHTRYTGQLNVPDQFTRLVLSLLATGIAPKSFYQQGAAGERQRAHYDGIPVDFTAEAITTLGAEPSWFDGGAGFRSFDVFNPHHDGVGLDEFVDWLIEAGHPISRIDDHKEWFARFETAVRGLPEAQRQHSLLPLLRAYSFPHPPVDGSVYPTGKFQGAVKAAQVGSDHDVPHLGKALIVKYADDLKALGLL
modifications: Segniliparus rugosus ATCC BAA-974
notes: Segniliparus rugosus carboxylate reductase
With B1 the “acceptance of 7-hydroxyheptanoate as substrate, forming 7-hydroxyheptanal” value [1] was “accepted 7-hydroxyheptanoate as substrate” and the “acceptance of heptanedioate as substrate, forming 7-oxoheptanoate” value [2] was “accepted heptanedioate as substrate”.
